Patent US20220332804A1 (CSL INNOVATION, published 2022)
Numbering of substitutions follows the chain as printed.

Legend:
Test in all cases: SPR, KD relative to WT C2;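 note: biacore SPR at 37 °C, anti-C2 mAbs captured via immobilised goat anti-human IgG, C2 alanine or serine surface mutants as analytes, 1:1 model fitted, double-referenced sensograms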
human C2 A444S = target: T1, human C2 A444S (human, UniProt P06681 21-752)
T1 sequence: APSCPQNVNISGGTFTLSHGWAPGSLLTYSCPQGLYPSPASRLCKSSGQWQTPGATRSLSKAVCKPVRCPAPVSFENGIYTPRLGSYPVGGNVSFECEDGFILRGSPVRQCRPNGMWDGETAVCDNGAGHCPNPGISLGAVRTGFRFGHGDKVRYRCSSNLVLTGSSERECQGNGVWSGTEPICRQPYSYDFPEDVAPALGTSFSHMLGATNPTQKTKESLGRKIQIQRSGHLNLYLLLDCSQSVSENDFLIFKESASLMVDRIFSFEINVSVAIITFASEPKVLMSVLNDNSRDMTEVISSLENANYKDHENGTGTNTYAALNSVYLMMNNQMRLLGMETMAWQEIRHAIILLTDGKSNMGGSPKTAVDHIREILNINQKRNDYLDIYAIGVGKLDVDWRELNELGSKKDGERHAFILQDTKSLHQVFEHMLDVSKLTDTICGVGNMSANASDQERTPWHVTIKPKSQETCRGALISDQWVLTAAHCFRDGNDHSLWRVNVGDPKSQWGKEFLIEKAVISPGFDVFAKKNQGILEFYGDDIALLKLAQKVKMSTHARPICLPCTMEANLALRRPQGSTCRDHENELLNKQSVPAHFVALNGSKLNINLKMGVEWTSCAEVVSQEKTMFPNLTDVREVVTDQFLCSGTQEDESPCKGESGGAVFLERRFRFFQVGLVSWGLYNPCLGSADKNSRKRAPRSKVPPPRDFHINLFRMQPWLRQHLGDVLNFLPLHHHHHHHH

human C2 N325A = target: T2, human C2 N325A (human, UniProt P06681 21-752)
T2 sequence: T1 sequence with N305A, S424A

human C2 N403A = target: T3, human C2 N403A (human, UniProt P06681 21-752)
T3 sequence: T1 sequence with N383A, S424A

human C2 R714A = target: T4, human C2 R714A (human, UniProt P06681 21-752)
T4 sequence: T1 sequence with S424A, R694A

B1: RF16-226 (antibody, human IgG4 S228P, lambda)
heavy: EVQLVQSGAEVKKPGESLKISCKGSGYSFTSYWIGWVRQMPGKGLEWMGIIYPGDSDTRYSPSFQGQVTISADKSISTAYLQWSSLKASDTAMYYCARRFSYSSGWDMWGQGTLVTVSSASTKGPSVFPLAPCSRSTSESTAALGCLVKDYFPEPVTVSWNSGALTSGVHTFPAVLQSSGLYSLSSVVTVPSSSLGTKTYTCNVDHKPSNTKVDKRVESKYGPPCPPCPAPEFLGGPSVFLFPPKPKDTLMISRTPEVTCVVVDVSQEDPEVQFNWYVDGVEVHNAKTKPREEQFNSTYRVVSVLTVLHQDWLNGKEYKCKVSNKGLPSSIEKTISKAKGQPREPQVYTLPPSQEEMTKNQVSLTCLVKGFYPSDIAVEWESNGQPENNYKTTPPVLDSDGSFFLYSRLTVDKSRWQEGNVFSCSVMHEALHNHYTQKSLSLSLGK
light: SYELTQPPSVSVSPGQTARITCSGDALTSKYVAWYQQKSGLAPLLVIYEDTRRPSGIPAKFSGSSSGSVATLTISGAHGDDEADYYCYSTDASGHQRVFGGGTKLTVLSQPKAAPSVTLFPPSSEELQANKATLVCLISDFYPGAVTVAWKADGSPVKAGVETTKPSKQSNNKYAASSYLSLTPEQWKSHRSYSCQVTHEGSTVEKTVAPTECS
notes: pH-dependent anti-C2 antibody from a phage display library; also called WT
Fold diff (human C2 A444S): 2 fold | Fold diff (human C2 N325A): 5 fold | Fold diff (human C2 N403A): 1 fold | Fold diff (human C2 R714A): 5 fold
